This is an account of results in publication PMC3043101.

The test addresses invariant chain (Ii), endogenous in Raji cells (human (endogenous in Raji)) (UniProt P04233). As to the kind of experiment: cross-linking; pooled sucrose gradient fractions 7/8 or 14/15 of Raji cell lysate; increasing DSP (up to 200 µg/ml), 2 h on ice; non-reducing SDS-PAGE; western blot for DRα (TAL-1B5) or Ii (Bu43). For orientation: Immunoblotting shows a protein as a band on a membrane.

As a reminder, the stoichiometry N is a count of units in the complex or per binding partner.

The substance “invariant chain (Ii), endogenous in Raji cells (from UniProt P04233 1-296) (natural protein)” had a stoichiometry N of 3.
